Kd data for one molecule are collected here from article PMC12642504 (bioRxiv, 2025).

By Kd is commonly meant the concentration at which binding is half-saturated.

The target of the experiment is BG505 MD39.3 SOSIP trimer (soluble Env trimer, SPR analyte) (HIV-1 group M subtype A, isolate BG505, stabilised). Put plainly: SPR.

B1: V2-Int1 antibody (PCT64-18D), human IgG1 (antibody, V domains shown)
VH: EVQLVESGGGLVKPGGSLRLSCVGSGFAFSDAWMTWVRQAPGKGLEWVGHMRPTPEGGAKDYAAPVKGRFTVSRDDSKNTLYLQMNSLKIEDTAVYYCMTGVETGDFWSDYYAQYYDPYLIDVWGKGTTVTVSS
VL: EIVLTQSPGTLSLSPGDRATLSCRATQSVDSNYLAWYQQKPGQAPRLLIYGTSSRAAGIPDRFSGSGSGTDFTLTIDRLEPEDFAVYYCRQYGTSFTFGPGTKVDIK
B1 came in with a Kd of 770 nM.
